Test results published in publication PMC9302817, “VEGF receptor heterodimers and homodimers are differentially expressed in neuronal and endothelial cell types” (PLoS ONE, 2022).

B1: VEGFR2 (mouse, endogenous in MAEC, MVEC, trigeminal ganglion neurons and mouse tissues) (receptor, UniProt P35918 20-1345, looked up)
chain: ASVGLPGDFLHPPKLSTQKDILTILANTTLQITCRGQRDLDWLWPNAQRDSEERVLVTECGGGDSIFCKTLTIPRVVGNDTGAYKCSYRDVDIASTVYVYVRDYRSPFIASVSDQHGIVYITENKNKTVVIPCRGSISNLNVSLCARYPEKRFVPDGNRISWDSEIGFTLPSYMISYAGMVFCEAKINDETYQSIMYIVVVVGYRIYDVILSPPHEIELSAGEKLVLNCTARTELNVGLDFTWHSPPSKSHHKKIVNRDVKPFPGTVAKMFLSTLTIESVTKSDQGEYTCVASSGRMIKRNRTFVRVHTKPFIAFGSGMKSLVEATVGSQVRIPVKYLSYPAPDIKWYRNGRPIESNYTMIVGDELTIMEVTERDAGNYTVILTNPISMEKQSHMVSLVVNVPPQIGEKALISPMDSYQYGTMQTLTCTVYANPPLHHIQWYWQLEEACSYRPGQTSPYACKEWRHVEDFQGGNKIEVTKNQYALIEGKNKTVSTLVIQAANVSALYKCEAINKAGRGERVISFHVIRGPEITVQPAAQPTEQESVSLLCTADRNTFENLTWYKLGSQATSVHMGESLTPVCKNLDALWKLNGTMFSNSTNDILIVAFQNASLQDQGDYVCSAQDKKTKKRHCLVKQLIILERMAPMITGNLENQTTTIGETIEVTCPASGNPTPHITWFKDNETLVEDSGIVLRDGNRNLTIRRVRKEDGGLYTCQACNVLGCARAETLFIIEGAQEKTNLEVIILVGTAVIAMFFWLLLVIVLRTVKRANEGELKTGYLSIVMDPDELPLDERCERLPYDASKWEFPRDRLKLGKPLGRGAFGQVIEADAFGIDKTATCKTVAVKMLKEGATHSEHRALMSELKILIHIGHHLNVVNLLGACTKPGGPLMVIVEFCKFGNLSTYLRGKRNEFVPYKSKGARFRQGKDYVGELSVDLKRRLDSITSSQSSASSGFVEEKSLSDVEEEEASEELYKDFLTLEHLICYSFQVAKGMEFLASRKCIHRDLAARNILLSEKNVVKICDFGLARDIYKDPDYVRKGDARLPLKWMAPETIFDRVYTIQSDVWSFGVLLWEIFSLGASPYPGVKIDEEFCRRLKEGTRMRAPDYTTPEMYQTMLDCWHEDPNQRPSFSELVEHLGNLLQANAQQDGKDYIVLPMSETLSMEEDSGLSLPTSPVSCMEEEEVCDPKFHYDNTAGISHYLQNSKRKSRPVSVKTFEDIPLEEPEVKVIPDDSQTDSGMVLASEELKTLEDRNKLSPSFGGMMPSKSRESVASEGSNQTSGYQSGYHSDDTDTTVYSSDEAGLLKMVDAAVHADSGTTLRSPPV
notes: Endogenous protein; also called KDR; flk-1; source: endogenous, MAEC and MVEC lysates; endogenous, mouse tissue lysates (thoracic aorta, portal vein, dorsal root ganglia, trigeminal ganglia, cornea); endogenous, fixed MAEC, MVEC and trigeminal ganglion neuronal cells
B2: VEGFR1 (mouse, endogenous in MAEC, MVEC, trigeminal ganglion neurons and mouse tissues) (receptor, UniProt P35969 23-1333, looked up)
chain: YGSGSKLKVPELSLKGTQHVMQAGQTLFLKCRGEAAHSWSLPTTVSQEDKRLSITPPSACGRDNRQFCSTLTLDTAQANHTGLYTCRYLPTSTSKKKKAESSIYIFVSDAGSPFIEMHTDIPKLVHMTEGRQLIIPCRVTSPNVTVTLKKFPFDTLTPDGQRITWDSRRGFIIANATYKEIGLLNCEATVNGHLYQTNYLTHRQTNTILDVQIRPPSPVRLLHGQTLVLNCTATTELNTRVQMSWNYPGKATKRASIRQRIDRSHSHNNVFHSVLKINNVESRDKGLYTCRVKSGSSFQSFNTSVHVYEKGFISVKHRKQPVQETTAGRRSYRLSMKVKAFPSPEIVWLKDGSPATLKSARYLVHGYSLIIKDVTTEDAGDYTILLGIKQSRLFKNLTATLIVNVKPQIYEKSVSSLPSPPLYPLGSRQVLTCTVYGIPRPTITWLWHPCHHNHSKERYDFCTENEESFILDPSSNLGNRIESISQRMTVIEGTNKTVSTLVVADSQTPGIYSCRAFNKIGTVERNIKFYVTDVPNGFHVSLEKMPAEGEDLKLSCVVNKFLYRDITWILLRTVNNRTMHHSISKQKMATTQDYSITLNLVIKNVSLEDSGTYACRARNIYTGEDILRKTEVLVRDSEAPHLLQNLSDYEVSISGSTTLDCQARGVPAPQITWFKNNHKIQQEPGIILGPGNSTLFIERVTEEDEGVYRCRATNQKGAVESAAYLTVQGTSDKSNLELITLTCTCVAATLFWLLLTLFIRKLKRSSSEVKTDYLSIIMDPDEVPLDEQCERLPYDASKWEFARERLKLGKSLGRGAFGKVVQASAFGIKKSPTCRTVAVKMLKEGATASEYKALMTELKILTHIGHHLNVVNLLGACTKQGGPLMVIVEYCKYGNLSNYLKSKRDLFCLNKDAALHMELKKESLEPGLEQGQKPRLDSVSSSSVTSSSFPEDRSVSDVEGDEDYSEISKQPLTMEDLISYSFQVARGMEFLSSRKCIHRDLAARNILLSENNVVKICDFGLARDIYKNPDYVRRGDTRLPLKWMAPESIFDKVYSTKSDVWSYGVLLWEIFSLGGSPYPGVQMDEDFCSRLKEGMRMRTPEYATPEIYQIMLDCWHKDPKERPRFAELVEKLGDLLQANVQQDGKDYIPLNAILTRNSGFTYSTPTFSEDLFKDGFADPHFHSGSSDDVRYVNAFKFMSLERIKTFEELSPNSTSMFEDYQLDTSTLLGSPLLKRFTWTETKPKASMKIDLRIASKSKEAGLSDLPRPSFCFSSCGHIRPVQDDESELGKESCCSPPPDYNSVVLYSSPPA
notes: VEGF receptor 1 (VEGFR-1, flt-1), endogenous in mouse aortic and venous endothelial cell lines, thy1-YFP mouse trigeminal ganglion neurons and mouse tissues; Endogenous protein; also called flt-1; Flt-1; source: endogenous, MAEC and MVEC lysates; endogenous, mouse tissue lysates (thoracic aorta, portal vein, dorsal root ganglia, trigeminal ganglia, cornea); endogenous, fixed MAEC, MVEC and …

Legend:
[1] = target: B2; test: proximity ligation; Duolink PLA on fixed MVEC; anti-VEGFR1 and anti-VEGFR2 with PLUS and MINUS probes (the same antibody with both probes for homodimers); signal only within 40 nm; conditions: partners not purified
[2] = target: the molecule itself; test: as above
[3] = target: B2; test: proximity ligation; Duolink PLA on fixed mouse trigeminal ganglion (TG) neuronal cells; anti-VEGFR1 and anti-VEGFR2 with PLUS and MINUS probes (the same antibody with both probes for homodimers); signal only within 40 nm; conditions: partners not purified
[4] = target: the molecule itself; test: as above

Binder | mean PLA fluorescence intensity per cell [1] | mean PLA fluorescence intensity per cell [2] | mean PLA fluorescence intensity per cell [3] | mean PLA fluorescence intensity per cell [4]
B1 | 99600 | 2.58e+06 | 268000 | 706000
B2 | – | 43300 | – | 2200
